In patent US20240076392A1, “ANTI-CD123 BINDING MOLECULES AND USES THEREOF” (IGM Biosciences, Inc., priority 2021, published 2024):
Substitutions are numbered along the chain they refer to.

B1: 32716 IgG (antibody, V domains shown)
VH: QIQLVQSGPELKKPGETVKISCKASGYIFTNYGMNWVKQAPGKSFKWMGWINTYTGESTYSADFKGRFAFSLETSASTAYLHINDLKNEDTATYFCARSGGYDPMDYWGQGTSVTVSS
VL: DIVLTQSPASLAVSLGQRATISCRASESVDNYGNTFMHWYQQKPGQPPKLLIYRASNLESGIPARFSGSGSRTDFTLTINPVEADDVATYYCQQSNEDPPTFGAGTKLELK
B2: h32716-1-1 IgG (antibody, V domains shown)
VH: QVQLVQSGAEVKKPGSSVKVSCKASGYIFTNYGMNWVRQAPGQGLEWMGWINTYTGESTYSADFKGRVTITADESTSTAYMELSSLRSEDTAVYYCARSGGYDPMDYWGQGTLVTVSS
VL: DIVMTQSPDSLAVSLGERATINCRASESVDNYGNTFMHWYQQKPGQPPKLLIYRASNLESGVPDRFSGSGSGTDFTLTISSLQAEDVAVYYCQQSNEDPPTFGQGTRLEIK
B3: h32716-2-1 IgG (antibody, V domains shown)
VH: B2 VH with R38K, V68F, I70F, A72L
VL: B2 VL
B4: h32716-3-1 IgG (antibody, V domains shown)
VH: B2 VH with R38K, L45F, E46K, V68F, I70F, A72L
VL: B2 VL
B5: h32716-4-2 IgG (antibody, V domains shown)
VH: QVQLVQSGPELKKPGASVKVSCKASGYIFTNYGMNWVRQAPGQGLEWMGWINTYTGESTYSADFKGRFVFSLDTSVSTAYLQISSLKAEDTAVYYCARSGGYDPMDYWGQGTLVTVSS
VL: DIQMTQSPSSLSASVGDRVTITCRASESVDNYGNTFMHWYQQKPGKAPKLLIYRASNLESGVPSRFSGSGSGTDFTFTISSLQPEDIATYYCQQSNEDPPTFGQGTKVEIK
B6: h32716-5-2 IgG (antibody, V domains shown)
VH: B5 VH with R38K
VL: B5 VL
B7: h32716-6-2 IgG (antibody, V domains shown)
VH: B5 VH with R38K, L45F, E46K
VL: B5 VL

Each binder was assayed against human CD123 on CHO cells expressing human CD123 (human) (UniProt P26951) (assay: flow cytometry on CHO cells expressing human CD123, 4-parameter fit (direct binding; column headed IC50)).
Sequence of human CD123 on CHO cells expressing human CD123 (human) (P26951 19-378): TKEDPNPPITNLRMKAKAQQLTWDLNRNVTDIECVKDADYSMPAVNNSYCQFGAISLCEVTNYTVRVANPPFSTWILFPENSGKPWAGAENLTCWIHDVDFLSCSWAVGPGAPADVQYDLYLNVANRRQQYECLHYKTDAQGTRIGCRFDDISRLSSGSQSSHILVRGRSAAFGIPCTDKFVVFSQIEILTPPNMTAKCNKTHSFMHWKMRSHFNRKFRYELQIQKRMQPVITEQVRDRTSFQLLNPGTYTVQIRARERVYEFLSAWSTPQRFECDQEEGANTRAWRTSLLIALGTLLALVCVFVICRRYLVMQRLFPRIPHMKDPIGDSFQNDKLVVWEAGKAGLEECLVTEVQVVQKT

| EC50 | EC50 (half-maximal binding concentration) | Binder |
| --- | --- | --- |
| 11 nM |  | B1 |
|  | 7.4 nM | B2 |
|  | 11 nM | B3 |
|  | 10 nM | B4 |
|  | 6.8 nM | B5 |
| 7.2 nM |  | B6 |
|  | 11 nM | B7 |

The binders below were run against human CD123 on CHO cells expressing human CD123 (human) (UniProt P26951) (assay: flow cytometry on CHO cells expressing human CD123, 4-parameter fit).

| Max binding intensity (MFI) | Binder |
| --- | --- |
| 910000 MFI | B1 |
| 950000 MFI | B2 |
| 930000 MFI | B3 |
| 940000 MFI | B4 |
| 980000 MFI | B5 |
| 1.1e+06 MFI | B6 |
| 1e+06 MFI | B7 |
